From US9707281B2, “Pharmaceutical compositions and methods for digesting atherosclerotic plaques” (Northwestern University, priority 2010, dated 2017)

Tested on: Human arterial plaque samples
Assay: in vitro dissolution and digestion of atherosclerotic plaque specimens (percent reduction of plaque weight)
Conditions: EDTA 0.5-2 mg/ml, β-cyclodextrin 1-100 mMol, tPA 0.5-2 mg/ml, p<0.05
Description: Atherosclerotic plaques from surgical endarterectomies were obtained from various anatomic sites. All experiments were performed by cutting a given plaque into equal parts by weight then exposing them to various agents alone and in combination to determine the most optimal digestion solution. The optimal concentration and conditions for plaque dissolution and digestion were determined for ethylenediaminetetraacetic acid (EDTA), β-cyclodextrin, tPA, collagenase type I, III, IV, and V. Weights of each specimen were obtained prior to exposure of each solution and at different time points to determine percent of digested versus undigested plaque. Additional variables that were assessed and optimized include: 1) different combinations of EDTA, β-cyclodextrin, and the collagenases, 2) temperature, 3) pH, and 4) agitation.
Atherosclerotic plaques were obtained from patients undergoing endarterectomies. The optimal concentration and conditions for plaque dissolution and digestion were determined for ethylenediaminetetraacetic acid (EDTA), β-cyclodextrin, and collagenase type I, III, IV, and V. Variables that were assessed included: 1) combination of different agents, 2) time, 3) temperature, 4) pH, and 5) agitation. Weight of each specimen was measured at different time points to determine percent of undigested plaque. […]

B1: tPA: tissue plasminogen activator (protein, UniProt P00750 36-562, looked up)
Tissue-type plasminogen …: SYQVICRDEKTQMIYQQHQSWLRPVLRSNRVEYCWCNSGRAQCHSVPVKSCSEPRCFNGGTCQQALYFSDFVCQCPEGFAGKCCEIDTRATCYEDQGISYRGTWSTAESGAECTNWNSSALAQKPYSGRRPDAIRLGLGNHNYCRNPDRDSKPWCYVFKAGKYSSEFCSTPACSEGNSDCYFGNGSAYRGTHSLTESGASCLPWNSMILIGKVYTAQNPSAQALGLGKHNYCRNPDGDAKPWCHVLKNRRLTWEYCDVPSCSTCGLRQYSQPQFRIKGGLFADIASHPWQAAIFAKHRRSPGERFLCGGILISSCWILSAAHCFQERFPPHHLTVILGRTYRVVPGEEEQKFEVEKYIVHKEFDDDTYDNDIALLQLKSDSSRCAQESSVVRTVCLPPADLQLPDWTECELSGYGKHEALSPFYSERLKEAHVRLYPSSRCTSQHLLNRTVTDNMLCAGDTRSGGPQANLHDACQGDSGGPLVCLNDGRMTLVGIISWGLGCGQKDVPGVYTKVTNYLDWIRDNMRP
reduction in plaque weight, agent alone: 20%
